Reference: the DeepSol protein solubility set

Assay: soluble on expression in E. coli; label from the status in PepcDB or PDB records

Row | Sequence | soluble on expression in E. coli
1 | MREVEPLAERLRPRSLDEVLGQPHLTGPQGLLRRMLEAGRLSSMVLFGPPGTGKTTLARLLAEGVGRPFLRLSAVEAGLKEVRQAVEEARAKGGLVLFLDEVHRFNKAQQDALLPHLESGLLTLIGATAENPAFALVPALRSRLRFFPLRPLEEADLLALLRRALEDPRGLPGTPYEEEALRVLAQAAGGDARFALNTLELAASFGRVDLKSVREALGAERFGMDREGDRFYDLVSALHKSLRGSHVDAALYYLARLLQGGADPRYLARRLIRVAVEDVGLADPLALRLAVAAKEAYEALGSPEGELALVEAAVYLALAPKSNSLYAAWKKAQEAAKAHPEAEVPLNLRNAPTGLARALGHGEGYAYYHEDKEGSFAQRYLPEGLEGLTLFEATGEGWEERVRERLKALRERFQTARRRRG | soluble
2 | FWGVWASEPPHPVLHASHDAAGWRLRGTKAWCSGASMCTHALVTARVDEQPRLFAVDLREPGVTAGRGGWRNPGMAATDTESVTFDGVPARPVGAPDE | not soluble
3 | MGSDKIHHHHHHAYGILGVLAITKDEAVLVAVTGVLSVGQLYGADILKITNVEFISLRTFGSVENVDSRIIDLQRQFIDLKKMFEKIIKKILKNLQRLLSSQMFYFSSLQSYDLTRSAQHRDSHDCSDARFFWNRSLHFSFQRYGIDTDNWLLKCMAGSVLVRVVYVGANTGRVALISRLSCERVGTRFNVRGANYLGNVANFVETEQLLLFDEKECSLLQIRGSIPLFWEQPGVNVGSHKVKLRAFETSLPAYHRHLSQLQHRYGEFAIVNLLGRKEGERVLGDAFKTQHKSSHFAPLVDFIDFDYHAQMKISKEAI | not soluble
4 | GSSGSSGMGNSKSGALSKEILEELQLNTKFSEEELCSWYQSFLKDCPTGRITQQQFQSIYAKFFPDTDPKAYAQHVFRSFDSNLDGTLDFKEYVIALHMTTAGKTNQKLEWAFSLYDVDGNGTISKNEVLEIVMAIFKMITPEDVKLLPDDENTPEKRAEKIWKYFGKNDDDKLTEKEFIEGTLANKEILRLIQFEPQKVKEKMKNA | soluble
5 | MSLYLITNRKLCSEERYLEVIKESILSGVENIIIREKDLEYQELRKLYMKIKTKINCIDFQEQISDESLKTNINQKECRNKFKVNFIINSNIEFFEKVDCQGIHLPFKLFLNLIENKYNFNENKILGLSLHKVEEVDYLEKLIRNQNIKIDYITLSHIYETKCKEGLNPKGIELLKEAKKITDIKIIALGGILPSNVKETLKYCDDFAIMSTIMRSKDIKKTISNYNEKLNEGHHHHHH | not soluble
6 | LKSLKDVTDHKKVNANDEDYKYIDMWKRLYQGHYAEWHNLNYEHNGNPVNRRQLSMNLPKVTAKYMSKLLFNEKVKINIDDKAAEEFVLNVLKTNGFTKNMERYIEYGEAMGGFVIKVYHDGNKNVKISFATADCMYPLSNDSENVDECVIANSFHKNNKYYKLLEWNEWKGKEEKVYTITTELYQSDNPDELGGEVSLKLLFNDIEPVVPLPPLTRPTFIYIKPNIANNKNLTSPLGISIYANALDTLKTLDLMFDSYYQEFKLGKKKVLVPSSFVKTAVNLDGSTTQYFDSTDEAFFLYQGDQDADGKSVKDISVEIRSTEFIESINAMLRIYAMQVGLSAGTFTFDENGLKTATEVVSEKSETYQTKNSHSQLIEQGIKEMIVSILEVGKFIEAYSGDVVELDTITVDFDDSIAQDEDTTINRYTTAKNQGMIPLKIALQRAWNITDAEAEEWKEEIEKDARAEIPG | not soluble
7 | MPAVAFPVSSPRLLARAVQIAVLAMGALCVGCQSVDYSPPRQDRPPRLVSGLVYWGGDDKEGSRAADKISDLPVYNGEDVWQRVAQRCRLVDGQGMNERIARQRDWLLSNRGFITGASVRASPYLHFIVERLDERNMPLELALLPMIESSYNPMANSPAAAAGLWQFIPSTGRSFNLHQSATYDARRDVVASSKAAMDYLTRLHDQFNNDWLLALAAYNAGEGTVGRAIEANRRRGLPVDYWNLNLPKETQDYVPRLLALSMVVRNPNAYGVKLTPVANTPYFDVVELNHAVDLTQLAATAGVDEGQLLRLNSAFLRKKTFDGPGRLLIPKTQNRVLTTSIARITGESPVTASIPLVTPSAIVKRAAERLPAPAPVAERPVRVAERPPLPKPVQSAQLAENLPSPKTAQPLPVAQQPTAPEALQPAPAAESAPAVEIAQSAPVVEPDPLTNRIQLPRIRDDRSSPRKRDDDEYRSGPRELPTGPRVVVFASDPRQLEHHHHHH | not soluble
8 | MHIHILGICGTFMGGVAMLARQLGHKVTGSDANVYPPMSTMLEAQGIEIIEGFDPVQLEPKPDLVVIGNAMSRGNPCVEYVLNHNLRYTSGPQWLQDFLLHDRWVIAVSGTHGKTTTSSMIAWVLEHCGYQPGFLVGGVLGNFGISARLGESMFFVVEADEYDSAFFDKRSKFVHYHPRTLVMNNLEFDHADIFDNLEAIKRQFHHLVRTVPGNGRILAPKQDEALADVLQRGCWSETEFSGEQGEWQAEKITADGSQFHVLLKGERVGQVNWSLVGDHNVSNALMAIAAARHVGVAPELACEALGLFVNTKRRLELKGEINGVTVYDDFAHHPTAIELTLGGLRNKVGDKKIIAVLEPRSATMKLGVHKETLAASLHSADSVYLYQPSNIPWSVEEVAKQCQQPAQVSANMDEFVAMIAKEAQAGDQILVMSNGGFEGIHGKLLAALQQK | not soluble
9 | MGSDKIHHHHHHMNRYLIIARVGDNSLHPTWINSEKRNFDLFISYFGNEEKKYSEHADYYEHMKGGKWPIISRLIDKNWEIISKYDAVWFPDDDLLVDTNSICKMFDLFSAFDLSLAQPALSMDSYFSHPCLLQQKKSIIRFTNFVEVMAPIFSLSSLERVKHTFSQSKSGWGLDFLWPHMINGKIGIIDVTPVIHTRPIGGELYKLNPELSPKMDIVKLQEIYPDIILNKKYKKNKFKVFSQILETRTLNEKMAYFKGKVQVALAKKVSKETKKYGA | not soluble
10 | QGQFFREIENLKEYFNASSPDVAKGGPLFSEILKNWKDESDKKIIQSQIVSFYFKLFENLKDNQVIQRSMDIIKQDMFQKFLNGSSEKLEDFKKLIQIPVDDLQIQRKAINELIKVMNDLS | soluble
11 | MSSTQTDYRLSDDLLGPVLAILDAYIDPYLAKGLVSAGCVNKLAIEGKRLQLGLVYPYPCMTQYRDTVMALTNKLAVLDAIDEVECEIDFQPKVYSAIASIAPIANVKQVIAVASGKGGVGKSTTAVNLALALAAEGAQVGILDADIYGPSVPLMLGIPNFRPVSPDGKHMTAASAYGIAAQSIGFMLSGDEAAVWRGPMAAGALAQLLNETQWPELDYLVVDMPPGTGDIQLTLSQKVPVSGAVIVTTPQDIALADAKKGITMFQKVNIPVLGIVENMSFHLCPECGHKEHPFGTHGGSKMAERYQVPLLGALPLHINIREAMDVGAPTVVAEPDSEVAALYREIARKVGAELALKQSQKTVSISVSDDELEHHHHHH | soluble
12 | MEPLMNQSLHICGCCKRELPHEAFYTNKRTGTLDNYCKECRKANTRKRRDLRRCTSFENKPVSYPVITEVKDPALRMLLILHARQVVAESISRKQEKEKLNTLWEE | not soluble
13 | MGHHHHHHGGHMSLKVLDFPSSKKAKELAVKYGYDEFIVRRWLHFFGDETEDIIRAFEEGIPKYIRINTLKIDEKGLLERLESRGFKLKKTEVPYCFEVVEEPYSIGATPEYLMGYYYVMDKSSCIPPLALEPKPGEVVVDLAASPGGKTTFLSMLMENKGAVIAVEPQKERLQPLIDNINRMGAMNVAVINVDGRRVPAMGIKADRVLLDAPCTGEGIIHKDPSRKTDRGKEDILFCSSLQRELVLAAFDCLKEGGVMVYSTCSLTPEENEFVVDFLLERRKGVVEEIEWGDEALALPGVKNEVSKARRFYPHRHQCSGFFVARIRKVGDSKAKPEEGGS | soluble
14 | MLSFCPSCNNMLLITSGDSGVYTLACRSCPYEFPIEGIEIYDRKKLPRKEVDDVLGGGWDNVDQTKTQCPNYDTCGGESAYFFQLQIRSADEPMTTFYKCVNCGHRWKEN | not soluble
15 | SANSGCKDVTGPDEESFLYFAYGSNLLTERIHLRNPSAAFFCVARLQDFKLDFGNSQGKTSQTWHGGIATIFQSPGDEVWGVVWKMNKSNLNSLDEQEGVKSGMYVVIEVKVATQEGKEITCRSYLMTNYESAPPSPQYKKIICMGAKENGLPLEYQEKLKAIEPNDYTGKVSEEIEDIIKKGETQTL | soluble
16 | MGSDKIHHHHHHMEMIMRPDRSLFIVEDDATFAKTLKRSFEKRDYDVVVCHGREDLLGALETAVPAYAVVDLKLGARGSGLECVKLLSARDTSMRIVVLTGFASIATAVEAIKLGACHYLAKPANTDDIEAAFGRAEGDVSVSLSSRPTSIKNLEWERIHETLVETGFNISETARRLGLHRRTLARKLEKRVVR | not soluble
